Details: Pseudomonas aeruginosa (strain ATCC 15692 / DSM 22644 / CIP 104116 / JCM 14847 / LMG 12228 / 1C / PRS 101 / PAO1), 10 °C, GdnHCl, Fluorescence, reversible: yes (100%), whole UniProt chain shown
[1] = pH 4, phosphate/acetate 25 mM/25 mM/
[2] = pH 4.7, phosphate/acetate 25 mM/25 mM/

B1: Cytochrome c-551 wild type, P00099 (protein)
chain: MKPYALLSLLATGTLLAQGAWAEDPEVLFKNKGCVACHAIDTKMVGPAYKDVAAKFAGQAGAEAELAQRIKNGSQGVWGPIPMPPNAVSDDEAQTLAKWVLSQK
- denaturant m value (pH 3, citrate 15 mM): 3.3 kcal/mol/M
- denaturant midpoint (higher = more stable) (pH 3, citrate 15 mM): 1 M
- unfolding free energy (pH 3, citrate 15 mM): 3.3 kcal/mol
- denaturant m value [1]: 2.8 kcal/mol/M
- denaturant midpoint (higher = more stable) [1]: 2.1 M
- unfolding free energy [1]: 5.9 kcal/mol
- denaturant m value [2]: 3.1 kcal/mol/M
- denaturant midpoint (higher = more stable) [2]: 2.1 M
- unfolding free energy [2]: 6.6 kcal/mol
- denaturant m value (pH 7, Sodium phosphate 50 mM): 3.3 kcal/mol/M
- denaturant midpoint (higher = more stable) (pH 7, Sodium phosphate 50 mM): 1.8 M
- unfolding free energy (pH 7, Sodium phosphate 50 mM): 6 kcal/mol

Source: FireProtDB (doi:10.1006/jmbi.1999.2852)
